The values that follow come from patent publication US20030113787A1 (Takeda / Millennium, published 2003).

For assay [1], the target named is T1, FLAG-CARD10/ΔCARD (human, UniProt Q9BWT7 131-1032).
T1 construct: also called CARD-10 truncation mutant lacking its CARD domain
T1 sequence: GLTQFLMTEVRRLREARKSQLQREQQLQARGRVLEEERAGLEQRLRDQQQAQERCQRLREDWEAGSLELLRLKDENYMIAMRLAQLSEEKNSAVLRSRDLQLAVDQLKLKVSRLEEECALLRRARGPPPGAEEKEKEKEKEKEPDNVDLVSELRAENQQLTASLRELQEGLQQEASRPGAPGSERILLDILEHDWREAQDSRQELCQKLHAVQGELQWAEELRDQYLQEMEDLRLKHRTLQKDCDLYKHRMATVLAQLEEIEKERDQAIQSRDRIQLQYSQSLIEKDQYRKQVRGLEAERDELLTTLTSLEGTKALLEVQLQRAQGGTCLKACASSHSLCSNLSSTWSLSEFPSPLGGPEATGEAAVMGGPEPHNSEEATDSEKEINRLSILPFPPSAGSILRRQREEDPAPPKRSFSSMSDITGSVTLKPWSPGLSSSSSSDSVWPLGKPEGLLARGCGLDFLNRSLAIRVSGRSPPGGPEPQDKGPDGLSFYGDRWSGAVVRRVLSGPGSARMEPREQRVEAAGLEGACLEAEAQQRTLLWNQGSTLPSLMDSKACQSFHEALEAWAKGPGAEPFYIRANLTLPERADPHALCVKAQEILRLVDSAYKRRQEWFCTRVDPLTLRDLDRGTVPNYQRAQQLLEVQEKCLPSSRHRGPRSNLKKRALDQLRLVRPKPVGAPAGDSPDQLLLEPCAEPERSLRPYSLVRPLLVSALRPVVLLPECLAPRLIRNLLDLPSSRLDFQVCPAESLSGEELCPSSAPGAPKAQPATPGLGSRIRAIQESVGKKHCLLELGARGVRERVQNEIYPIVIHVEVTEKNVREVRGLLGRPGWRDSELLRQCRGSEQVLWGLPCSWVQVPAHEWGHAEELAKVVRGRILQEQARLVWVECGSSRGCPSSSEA
Put plainly: co-immunoprecipitation from transfected 293T cells.

The target in another assay is T2, FLAG-tagged CARD-10 (human, UniProt Q9BWT7 1-1032).
T2 construct: Expressed in 293T cells; also called FLAG-CARD-10
T2 sequence: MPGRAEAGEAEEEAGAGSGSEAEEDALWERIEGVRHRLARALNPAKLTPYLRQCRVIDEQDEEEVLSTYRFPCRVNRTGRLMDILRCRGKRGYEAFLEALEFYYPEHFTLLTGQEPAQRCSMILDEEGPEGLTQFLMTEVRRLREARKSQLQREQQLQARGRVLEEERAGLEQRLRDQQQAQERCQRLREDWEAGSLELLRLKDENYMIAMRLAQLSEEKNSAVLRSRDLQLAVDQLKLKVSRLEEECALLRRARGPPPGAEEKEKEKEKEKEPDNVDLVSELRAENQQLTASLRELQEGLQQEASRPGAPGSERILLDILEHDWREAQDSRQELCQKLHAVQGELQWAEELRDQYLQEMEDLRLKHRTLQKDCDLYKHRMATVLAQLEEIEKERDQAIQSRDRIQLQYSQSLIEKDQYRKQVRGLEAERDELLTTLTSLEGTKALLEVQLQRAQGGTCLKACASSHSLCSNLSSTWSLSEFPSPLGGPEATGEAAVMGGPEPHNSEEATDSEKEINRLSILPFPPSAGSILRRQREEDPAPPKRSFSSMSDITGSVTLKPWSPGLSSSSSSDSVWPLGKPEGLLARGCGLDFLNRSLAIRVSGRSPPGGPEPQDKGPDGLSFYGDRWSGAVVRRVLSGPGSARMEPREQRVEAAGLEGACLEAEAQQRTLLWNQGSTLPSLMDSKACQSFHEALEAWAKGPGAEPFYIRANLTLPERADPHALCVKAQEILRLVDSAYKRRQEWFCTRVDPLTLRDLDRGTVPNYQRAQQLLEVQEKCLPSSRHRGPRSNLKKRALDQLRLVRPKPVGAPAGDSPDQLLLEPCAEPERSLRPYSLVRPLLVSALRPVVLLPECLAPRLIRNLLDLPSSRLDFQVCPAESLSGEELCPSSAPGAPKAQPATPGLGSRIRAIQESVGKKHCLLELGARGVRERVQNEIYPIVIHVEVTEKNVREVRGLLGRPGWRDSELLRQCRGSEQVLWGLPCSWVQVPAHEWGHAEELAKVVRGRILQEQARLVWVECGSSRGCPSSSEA
Put plainly: co-immunoprecipitation from transfected 293T cells.

In assay [2] the target is T1, FLAG-CARD10/ΔCARD. In words: co-immunoprecipitation with anti-Bcl-10 antibodies, anti-FLAG blot.

Residue numbers refer to the chain shown, from its start. Names and notes keep the numbering of the source.

B1: variant Bcl-10 with a point mutation (L41R) (other, UniProt O95999 1-233, looked up)
chain: MEPTAPSLTEEDLTEVKKDALENLRVYLCEKIIAERHFDHRRAKKILSREDTEEISCRTSSRKRAGKLLDYLQENPKGLDTLVESIRREKTQNFLIQKITDEVLKLRNIKLEHLKGLKCSSCEPFPDGATNNLSRSNSDESNFSEKLRASTVMYHPEGESSTTPFFSTNSSLNLPVLEVGRTENTIFSSTTLPRPGDPGAPPLPPDLQLEEEGTCANSSEMFLPLRSRTVSRQ
notes: also called Bcl-10 L41R mutant
With B1, the binding result with FLAG-CARD10/ΔCARD [1] and with FLAG-tagged CARD-10 was “no binding” in each case.

B2: endogenous Bcl-10 (other, human, UniProt O95999 1-233, looked up)
chain: B1 chain with R41L
notes: Endogenous protein in cell extracts
In the case of B2, the binding result in the assay with FLAG-CARD10/ΔCARD [2] was “no binding”.
